{"source": "paper PMC11912111", "about": "(Advanced Healthcare Materials, 2025)", "key": {"[1]": {"assay": "Teduglutide stability in the foam after the gassing process", "type": "physicochemical", "conditions": "Ted-loaded foam and effervescence-like formulation, n = 3 (Figure S3)"}, "[2]": {"conditions": "cited from earlier work"}, "GLP-1R": {"test_system": "GLP-1R", "conditions": "GL can also activate GLP-1R; cited from earlier work"}}, "note": "Like-named read-outs stand apart in the source and are kept apart here.", "data": [{"substance": "teduglutide", "values": [{"measurement": "stability of Ted after the foaming process (concentration change)", "setting": "[1]", "value": "degraded after the foaming process"}]}, {"substance": "Glucagon-like peptide 2 [GLP-2]", "values": [{"measurement": "elimination half-life", "setting": "[2]; native GLP-2, healthy individuals, breakdown by DPP-4", "value": 7, "unit": "min"}]}, {"substance": "Glepaglutide", "values": [{"measurement": "binding affinity at GLP-1R", "setting": "GLP-1R", "value": "low binding affinity"}, {"measurement": "elimination half-life", "setting": "[2]; in humans", "value": "up to 50 h"}]}]}
